Measurements taken from US20200079851A1 (University of Texas, published 2020).
Each block holds one binder with its values, some of them ahead of it.

What was measured:
LILRB5 = LILRB5 (human, UniProt O75023 24-458, limits assumed); assay: reactivity table, assay not named on the sheet
human LILRB4 [1] = target: T1, human LILRB4 (human, UniProt Q8NHJ6 22-259, limits assumed); assay: reactivity table, assay not named on the sheet
T1 construct: also called leukocyte immunoglobulin-like receptor subfamily B member 4

LILRB3 = target: T2, LILRB3 (human, UniProt O75022 24-443, limits assumed); assay: flow cytometry on LILRB3-overexpressing 293T cells, mAb at 2 ug/ml
T2 construct: also called leukocyte immunoglobulin-like receptor subfamily B member 3
T2 sequence (O75022 24-443 limits assumed): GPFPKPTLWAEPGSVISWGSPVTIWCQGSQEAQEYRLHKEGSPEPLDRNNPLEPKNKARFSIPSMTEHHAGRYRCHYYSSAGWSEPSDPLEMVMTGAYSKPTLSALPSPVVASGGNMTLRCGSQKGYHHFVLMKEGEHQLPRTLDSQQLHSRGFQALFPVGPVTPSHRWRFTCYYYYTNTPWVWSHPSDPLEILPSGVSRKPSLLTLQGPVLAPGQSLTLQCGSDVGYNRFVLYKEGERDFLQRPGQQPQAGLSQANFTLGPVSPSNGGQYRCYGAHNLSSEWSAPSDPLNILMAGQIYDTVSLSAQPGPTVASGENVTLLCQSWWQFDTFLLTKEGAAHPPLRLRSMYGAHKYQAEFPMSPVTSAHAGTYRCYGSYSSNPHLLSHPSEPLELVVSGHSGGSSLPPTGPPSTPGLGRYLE

human LILRB4 [2] = target: T1, human LILRB4; assay: ELISA
LILRB2 = target: T3, LILRB2 (human, UniProt Q8N423 22-458, limits assumed); assay: flow cytometry on LILRB2-overexpressing 293T cells, mAb at 2 ug/ml
T3 construct: also called leukocyte immunoglobulin-like receptor subfamily B member 2
T3 sequence (Q8N423 22-458 limits assumed): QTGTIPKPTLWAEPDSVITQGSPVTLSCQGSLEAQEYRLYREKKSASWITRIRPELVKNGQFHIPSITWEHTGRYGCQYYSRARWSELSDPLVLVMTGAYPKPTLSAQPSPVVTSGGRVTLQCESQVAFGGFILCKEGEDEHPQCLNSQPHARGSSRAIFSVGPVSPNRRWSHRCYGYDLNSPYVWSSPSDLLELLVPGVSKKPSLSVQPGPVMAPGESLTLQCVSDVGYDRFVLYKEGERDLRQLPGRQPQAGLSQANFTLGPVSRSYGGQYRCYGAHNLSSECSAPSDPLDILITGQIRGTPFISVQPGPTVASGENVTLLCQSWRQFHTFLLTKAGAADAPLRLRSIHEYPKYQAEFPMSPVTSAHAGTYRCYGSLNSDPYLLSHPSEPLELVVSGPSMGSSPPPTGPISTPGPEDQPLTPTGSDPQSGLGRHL

human LILRB4 [3] = target: T1, human LILRB4; assay: ELISA, OD450 against antibody concentration
human LILRB4 [4] = target: T1, human LILRB4; assay: ELISA, OD450 against antibody concentration; remark: listed apart in the source
D2-SR-M16(210-259) = assay: ELISA, mAb titrated on D2-SR-M16(210-259)
Chain of D2-SR-M16(210-259) (chain, as listed by the source): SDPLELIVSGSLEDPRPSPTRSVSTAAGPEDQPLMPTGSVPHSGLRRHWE

human LILRB4 [5] = target: T1, human LILRB4; assay: flow cytometry on LILRB4-overexpressing 293T cells, mAb at 2 ug/ml
human LILRB4 [6] = target: T1, human LILRB4; assay: ELISA, OD450 against antibody concentration; remark: listed apart in the source
human LILRB4 [7] = target: T1, human LILRB4; assay: ELISA, OD450 against antibody concentration; remark: listed apart in the source
human LILRB4 [8] = target: T1, human LILRB4; assay: ELISA, OD450 against antibody concentration; remark: listed apart in the source

Chain of LILRB5 (O75023 24-458 limits assumed): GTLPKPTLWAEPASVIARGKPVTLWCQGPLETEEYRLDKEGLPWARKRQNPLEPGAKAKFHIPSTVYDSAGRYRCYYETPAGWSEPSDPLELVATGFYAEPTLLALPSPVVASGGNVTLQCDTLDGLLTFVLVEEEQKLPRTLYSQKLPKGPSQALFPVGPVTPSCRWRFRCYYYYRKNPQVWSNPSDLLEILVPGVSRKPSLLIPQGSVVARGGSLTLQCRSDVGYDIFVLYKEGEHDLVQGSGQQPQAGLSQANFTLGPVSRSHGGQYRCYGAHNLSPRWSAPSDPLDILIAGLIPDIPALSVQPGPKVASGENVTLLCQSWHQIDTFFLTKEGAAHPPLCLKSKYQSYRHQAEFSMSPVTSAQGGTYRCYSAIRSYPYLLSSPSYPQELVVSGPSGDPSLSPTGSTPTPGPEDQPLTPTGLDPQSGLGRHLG

- binding result (LILRB5): binds
- binding result (human LILRB4 [1]): binds
- % of cells in the positive gate (LILRB3): 64%
B1: anti-LILRB mAb C290 (antibody, V domains shown)
VH: EVQLLQSGPELVKPGASVKISCRTSGYTFTEYTMHWVKQSHGKSLEWIGGINTNNGGTSYNQKFKGKATLTVDKSSSTAYMELRSLTSEDSAVYYCARDKRSRGELDSTMDYWGQGTSVTVSS
VL: DIVMTQAAPSVPVTPGESVSISCRSSKSLLHSNGNTYLYWFLQRPGQSPQLLIYRMSNLASGVPDRFSGSGSGTAFTLRISRVEAEDVGVYYCMQHLEYPFTFGSGTMLEIK
notes: mAb against LILRB3

- EC50 (human LILRB4 [2]): 0.14 nM
B2: anti-LILRB4 rabbit monoclonal antibody #192 (antibody, V domains shown)
VH: EQSLEESGGGLVTPGGTLTLTCTVSGFSLSNNAMSWVRQAPGKGLEWIGVILLAGPTYYASWAKGRFTISKTSTTVDLKITSPTTEDTATYFCAIAIGSRPFALWGQGTLVTISS
VL: ELVLTQTPSSTSAAVGGTVTINCQSSQSVYSNWLSWFQQKPGQPPKPLIYLASTLASGVPSRFSGSGSGTQFTLTISDVQCDDAATYYCQGGYNGNIYTFGGGTEVVVK
notes: Rabbit mAb

- EC50 (human LILRB4 [2]): 0.132 nM
B3: anti-LILRB4 rabbit monoclonal antibody #208 (antibody, V domains shown)
VH: EQSVEESGGGLVTPGGTLTLTCTVSGFSLSNNAMSWVRQAPGKGLEWIGVILLSGTTYYASWAKGRFTISKTSTTVDLKITSPTTEDTATYFCAIAIGSRPFALWGQGTLVTISS
VL: ELVMTQTPSSTSAAVGGTVTINCQSSQSVYSNWLSWFQQKPGQPPKPLIYLASTLASGVPSRFSGSGSGTQFTLTISDVQCDDAATYYCQGGYNGNIYTFGGGTEVVVK
notes: Rabbit mAb

- % of cells in the positive gate (LILRB2): 15%
B4: anti-LILRB mAb C193 (antibody, V domains shown)
VH: EVQLVESGGGLVQPKGSLRLSCAASGFIFNTYAMNWVRQAPGKGLEWVARIRSKSNKYATYYVDSVKDRFTISRDDSQSMLYLQMNNLKTEDTAMYYCVRDGIWGQGTLVTVSA
VL: DIVMTQSPSSLTVTAGEKVTMSCKSSQSLLNSGNQKNYLTWYHQKPGQPPKLLIYWAFTRESGVPDRFTGSGSGTDFTLTISSVQAEDLAVYYCQNDYSYPLTFGSGTKLEIK
notes: mAb against LILRB2

- EC50 (human LILRB4 [2]): 0.0795 nM
B5: anti-LILRB4 rabbit monoclonal antibody #120 (antibody, V domains shown)
VH: QSLEESGGRLVTPGTPLTLTCTVSGIDLNKYAMTWVRQAPGKGLEYIGFINIVGIAGYATWAKGRFTISKTSTTVDLKVTSPTTEDTATYFCARNWIRLDLWGQGTLVTVSS
VL: ELDLTQTPASVSAAVGGTVTISCQSSESLYKKNYLSWFQQKPGQPPKLLIFEASKLASGVPSRFSGSGSGTQFTLTISDVQCDDAASYYCLGDYTNGRDTTFGGGTEVVVK
notes: Rabbit mAb

- binding result (human LILRB4 [1]): binds
- % of cells in the positive gate (LILRB3): 54.2%
B6: anti-LILRB mAb C3 (antibody, V domains shown)
VH: EVQLVESGGGLVQPKGSLKLSCAASGFTFNNYAMNWGRQAPGKGLEWVARIRSKRNNYATHYDDSVKDRFTISRDDSQNMLYLQLNNLKTEDTAMYYCVRDGPYAMDYWGQGTSVTVSS
VL: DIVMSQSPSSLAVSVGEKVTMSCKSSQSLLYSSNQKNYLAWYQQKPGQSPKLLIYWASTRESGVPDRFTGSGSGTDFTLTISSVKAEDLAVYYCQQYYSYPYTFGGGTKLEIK
notes: mAb against LILRB3

- EC50 (human LILRB4 [3]): 0.0177 µg/mL
- EC50 (human LILRB4 [2]): 0.118 nM
B7: anti-LILRB4 rabbit monoclonal antibody #101 (antibody, V domains shown)
VH: HSVKESGGGLVTPGESLKLTCKASGMDFSKYWICWVRQAPGKGLEWIACIDTGRSAITVYAKWAKGRFTISKTSSTTVTLQMTTLTAADTATYFCETSVDLWGPGTLVTISS
VL: ELDLTQTPASVEAAVGGTVTIKCQASESIYSGLAWYKQKPGQPPKFLILSASTQASGVPSRFKGSGSGTEFTLTISDLECADAATYYCQSRHYGSSRSYGFAFGGGTEVEIK
notes: Rabbit mAb

- % of cells in the positive gate (LILRB3): 55%
B8: anti-LILRB mAb C287 (antibody, V domains shown)
VH: QIQLVQSGPELKKPGETVKISCKASGYTFTNYGINWVKQAPGKGLKWMGWINTNTGEPTYAEDFKGRFAFSLETSASTAYLQINNLKNEDTATYFCTRGSAKGGFFYWGQGTLVTVSA
VL: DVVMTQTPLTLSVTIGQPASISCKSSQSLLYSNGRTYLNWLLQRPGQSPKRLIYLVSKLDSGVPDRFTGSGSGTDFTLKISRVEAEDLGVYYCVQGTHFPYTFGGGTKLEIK
notes: mAb against LILRB3

- EC50 (human LILRB4 [4]): 0.0274 µg/mL
- EC50 (human LILRB4 [2]): 0.183 nM
- EC50 (read off the curve) (D2-SR-M16(210-259)): ~0.04 µg/mL
B9: anti-LILRB4 rabbit monoclonal antibody #140 (antibody, V domains shown)
VH: EQSLKESGGRLVTPGTPLTLTCTASGFSLSTYDMSWVRQAPGKGLEWIGIISTSYSIYYTYYASWAKGRFTISRTSSTTVDLKMTSLTTEDTATYFCVGGGGKLNSVVYYIRGLRFWGQGTLVTISS
VL: ELVMTQTPSSTSAAVGGTVTINCQASQSVYDDNWCSWYQQKPGQPPKLLIYDASTLPSGVPSRFKGSGSGTQFTLTISDLECDDAATYYCAGAYSDNIYVFGGGTEVEIK
notes: also called mAb 140

- EC50 (human LILRB4 [2]): 0.0691 nM
B10: anti-LILRB4 rabbit monoclonal antibody #161-1 (antibody, V domains shown)
VH: QSVKESGGRLVTPGTPLTLTCTVSGIDLSVYLMSWVRHSPGKGLEYIGFINSAGITAYATWAKGRFIISKTSTTVDLKVTSPTTEDTATYFCARNWIRLDLWGQGTLVTISS
VL: ELDLTQTPASVSAAVGGTVTISCQSSETIYKNYLSWFQQKPGQPPKLLIYESSKLASGVPSRFSGSGSGTQFTLTISDVQCDDAATYYCLGGYTDGRDTIFGGGTELEIK
notes: Rabbit mAb

- EC50 (human LILRB4 [2]): 0.084 nM
B11: anti-LILRB4 rabbit monoclonal antibody #161-2 (antibody, V domains shown)
VH: QSVKESGGRLVTPGTPLTLTCTVSGIDLSVYLMSWVRHSPGKGLEYIGFINSAGITAYATWAKGRFIISKTSTTVDLKVTSPTTEDTATYFCARNWIRLDLWGQGTLVTISS
VL: TQTPASVSAAVGGTVTISCQSSETIYKNYLSWFQQKPGQPPKLLIYESSKLASGVPSRFSGSGSGTQFTLTISDVQCDDAATYYCLGGYTDGRDTIFGGGTEVEIK
notes: Rabbit mAb

- % of cells in the positive gate (human LILRB4 [5]): 73.5%
B12: anti-LILRB4 mAb C53 (antibody, V domains shown)
VH: EVNLEESGGGLVQPGGSMKLSCIASGFTFSNYWMNWVRQSPEKGLEWVAEIRLKYNNYATHYAESVKGRFTISRDDSKSTVYLQMNNLRAEDTGIYYCTGTRYGSSLDYWGQGTSVTVSS
VL: DIVMSQSPSSLAVSVGEKVTMSCKSSQNLFYSTNQKNYLAWYQQKPGQSPKLLIYWASTRESGVPDRFTGSGSGTAFTLTISSVKAEDLAVYYCQQYYNYPLTFGAGTKLELK
notes: Mouse mAb

- EC50 (human LILRB4 [6]): 0.0459 µg/mL
B13: anti-LILRB4 rabbit monoclonal antibody #216-1 (antibody, V domains shown)
VH: EQSVEESGGGLVKPGASLTLTCIASGFSFSSSYVMCWVRQAPGKGLELIACIHAGGSGSTYYASWAKGRFTISKTSSTTVTLQMTSLTAADTATYFCARYNYHFYYIGDYSDLWGPGTLVTVSS
VL: ELVMTQTPSSVSAAVGGTVTIKCQASEDIDSYLAWYQQKPGQRPKVLIYRASTLASGVPSRFKGSGSGTEFTLTISGLECDDAATYYCQQGWSNDVGSNAFGGGTKVEIK
notes: Rabbit mAb

- % of cells in the positive gate (human LILRB4 [5]): 62.5%
- EC50 (human LILRB4 [2]): 0.568 nM
B14: anti-LILRB4 mAb C84 (antibody, V domains shown)
VH: QIQLVQSGPELKKPGETVKISCKASGYTFTNYGMNWVKQAPGKGLKWMGWINTYTGEPTYADDFKGRFAFSLETSASTAYLQINNLKNEDMATYFCASIYYHTSLWYFDVWGAGTTVTVSS
VL: DVLMTQTPLSLPVSLGDQASISCRSSQNIVHSNGNTYLEWYLQKPGQSPKLLIYRVSNRFSGVPVRFSGSGSGTDFTLKISRVEAEDLGVYYCFQGSHVPLTFGAGTKLELK
notes: Mouse mAb; also called anti-hLILRB4

- % of cells in the positive gate (LILRB2): 5.22%
B15: anti-LILRB mAb C102 (antibody, V domains shown)
VH: EVQLQQSGPELVKPGASVKISCKTSGYTFTEYTMHWVKQSHGKSLEWIGGINPNNGGTSYNQKFKGKATLTVDKSSSTAYMDLRSLTSEDSAVYYCARYWDYFDYWGQGTTLTVSS
VL: DVLMTQTPLSLPVSLGDQASISCRSSQSIVHSNGNTYLEWFLQKPGQSPKLLIYKVSNRFSGVPDRFSGSGSGTDFTLKISRVEAEDLGVYYCFQGSQIPPTFGGGTKLEIK
notes: mAb against LILRB2

- % of cells in the positive gate (human LILRB4 [5]): 38.3%
- binding result (LILRB5): binds
B16: anti-LILRB4 mAb C201 (antibody, V domains shown)
VH: DVQLQESGPGLVKPSQSLSLTCTVTGYSITSDYAWNWIRQFPGNKLEWMGYISYSGGTSYNPSLKSRISITRDTSKNQFFLQLNSVTTEDTATYYCARLHYGYDYWGLGTTLTVSS
VL: DVLMTQTPLSLPVSLGDQASISCRSSQSIVHSNGNTYLEWYLQKPGQSPKLLIYKVSNRFSGVPDRFSGSGSGTDFTLKISRVEAEDLGVYYCFQGLHVPPTFGGGTKLEIK
notes: Mouse mAb

- % of cells in the positive gate (human LILRB4 [5]): 44.7%
B17: anti-LILRB4 mAb C92 (antibody, V domains shown)
VH: QIQLVQSGPELKKPGETVKISCKASGYTFTNYGMNWVKQAPGKGLKWMGWINTYTGEPTYADDFKGRFAFSLETSASTAYLQINNLKNEDMATYFCASIYYHTSLWYFDVWGAGTTVTVSS
VL: DVVMTQTPLSLPVSLGDQASISCRSSQSLVHSNGNTYLHWYLQKPGQSPKLLIYKVSNRFSGVPDRFSGSGSGTDFTLKISRVEAEDLGVYFCSQSTHVPYTFGGGTKLEIK
notes: Mouse mAb

- EC50 (human LILRB4 [7]): 0.0209 µg/mL
- EC50 (human LILRB4 [2]): 0.139 nM
B18: anti-LILRB4 rabbit monoclonal antibody #128-1 (antibody, V domains shown)
VH: EQSVEESEGRLVTPGGSLTLTCTVSGFGLSSWAMAWVRQAPGKGLEWIGIIGVSGKIYYPTWAKGRFTISRTSTTVDLKIASPTTEDTATYFCAREPYGDSLWGQGTLVTISS
VL: ELVMTQTPSPVSAAVGGTVTISCQSSQNISTYLSWYQQKPGQPPKFLIYQASKLASGVSSRFKGSGSGTQFTLTISDVQCDDAASYYCAGWKSYSNDDNDFGGGTEVVVK
notes: Rabbit mAb

- EC50 (human LILRB4 [8]): 0.0274 µg/mL
- EC50 (human LILRB4 [2]): 0.0897 nM
B19: anti-LILRB4 rabbit monoclonal antibody #223 (antibody, V domains shown)
VH: EQSVKESGGRLVTPGTPLTLTCIVSGFSLNNYAISWVRQAPEKGLEWIGMIRSDGHVDYATWAKGRFTISKTSTTVDLKMTSLTTEDTATYFCARGGHFFNPWGPGTLVTISS
VL: ELVMTQTPSPVSAAVGGTVTISCQSSQTVYNYNELAWYQQKPGQPPKLLIDAASTLASGVPSRFSGSGSGTQFTLKISEVQCDDAATYYCQGTYYISGWYYTFGGGTEVVVK
notes: Rabbit mAb
